These results are taken from PMC9558310 (ACS Chemical Biology, 2019).

This data set deals with the molecule itself. In words: SEC. (Size exclusion chromatography separates by hydrodynamic size, large species first.)

B1: human PLPBP R41Q mutant (natural protein)
chain: not shown
modifications: fully saturated with PLP after purification
Turning to B1, the binding result is listed as “binds”.

B2: tag-free recombinant human pyridoxal 5'-phosphate-binding protein (PLPBP) (natural protein)
chain: not shown
modifications: pyridoxal 5'-phosphate bound at Lys47 (internal aldimine)
As a reminder, the stoichiometry N is the number of molecules, sites or subunits per partner or assembly. In the case of B2, the “stoichiometry N” value stood at 2.

B3: Strep-tag recombinant human PLPBP (natural protein)
chain: not shown
modifications: pyridoxal 5'-phosphate bound at Lys47 (internal aldimine)
Take B3: the “stoichiometry N” value came to 2.
